Earlier results in article PMC4454200.

Biological target: Myosin-5a GTD (Mus musculus) (UniProt Q99104)
Sequence (Q99104 1469-1853): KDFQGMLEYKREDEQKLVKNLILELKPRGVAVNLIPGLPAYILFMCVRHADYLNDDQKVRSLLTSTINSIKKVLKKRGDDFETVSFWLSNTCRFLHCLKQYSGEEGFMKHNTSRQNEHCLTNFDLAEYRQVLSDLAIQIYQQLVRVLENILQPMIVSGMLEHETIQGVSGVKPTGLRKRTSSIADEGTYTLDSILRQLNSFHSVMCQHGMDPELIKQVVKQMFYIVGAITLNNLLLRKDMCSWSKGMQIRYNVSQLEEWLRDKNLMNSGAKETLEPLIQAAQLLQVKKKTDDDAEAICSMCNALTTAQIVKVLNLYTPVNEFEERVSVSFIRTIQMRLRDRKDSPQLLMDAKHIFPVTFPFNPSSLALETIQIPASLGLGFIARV

Melanophilin GTBDP, sequence (Q91V27 176-201): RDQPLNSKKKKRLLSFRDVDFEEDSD

Kd: 500 nM
Substance: Melanophilin GTBDP (from UniProt Q91V27)
